Positions count from the first letter of the chain named.
B1: SP34 (m/h chimeric) IgG (antibody, V domains shown)
VH: EVQLVESGGGLVQPKGSLKLSCAASGFTFNTYAMNWVRQAPGKGLEWVARIRSKYNNYATYYADSVKDRFTISRDDSQSILYLQMNNLKTEDTAMYYCVRHGNFGNSYVSWFAYWGQGTLVTVSS
VL: QAVVTQESALTTSPGETVTLTCRSSTGAVTTSNYANWVQEKPDHLFTGLIGGTNKRAPGVPARFSGSLIGDKAALTITGAQTEDEAIYFCALWYSNLWVFGGGTKLTVLG
notes: Murine SP34 variable domains tested as mouse/human chimeric IgG; also called SP34 IgG (m/h chimera)
B2: mAb#Nürnberg (antibody, human IgG1, lambda)
heavy: not shown
light: QTVVTQEPSLTVSPGGTVTLTCRSSTGAVTTSNYANWVQQKPGQAPRGLIGGTNKRAPGTPARFSGSLLGGKAALTLSGVQPEDEAEYYCALWYSNLWVFGGGTKLTVLGQPKAAPSVTLFPPSSEELQANKATLVCLISDFYPGAVTVAWKADSSPVKAGVETTTPSKQSNNKYAASSYLSLTPEQWKSHRSYSCQVTHEGSTVEKTVAPTECS
B3: mAb#Mainz (antibody, human IgG1, lambda, V domains shown)
VH: QVQLVESGGGLVKPGGSLRLSCAASGFTFNTYAMNWIRQAPGKGLEWVSRIRSKYNNYATYYADSVKDRFTISRDNAKNSLYLQMNSLRAEDTAVYYCVRHGNFGNSYVSWFAYWGQGTLVTVSS
VL: QAVVTQEPSLTVSPGGTVTLTCRSSTGAVTTSNYANWVQQKPGQAPRGLIGGTNKRAPWTPARFSGSLLGGKAALTITGAQAEDEADYYCALWYSNLWVFGGGTKLTVLG
B4: mAb#Gladbach (antibody, human IgG1, lambda, V domains shown)
VH: B3 VH
VL: B3 VL with A2T, N54K, K55F, R56L, W59G, I77L, T78S, A80V, A82P, D87E
B5: mAb#Freiburg (antibody, human IgG1, lambda, V domains shown)
VH: B3 VH with Q1E, I37V, S49G, N76D, A77S, S80T, R89K, A90T, V99T, R100T
VL: B3 VL with A2T, W59G, I77L, T78L, A82P, D87E
B6: mAb#Köln (antibody, human IgG1, lambda)
heavy: not shown
light: B2 light with Q1E, T2L
B7: mAb#München (antibody, human IgG1, lambda, V domains shown)
VH: B3 VH with Q1E, I37V, S49G, N76D, A77S, S80T, R89K, A90T, V99T, R100T
VL: B3 VL with A2T, N54K, K55F, R56L, W59G, I77L, T78L, A82P, D87E
notes: also called Munchen
B8: mAb#Bremen (antibody, human IgG1, lambda, V domains shown)
VH: B3 VH with Q1E, I37V, S49G, N76D, A77S, S80T, R89K, A90T, V99T, R100T
VL: B3 VL with A2T, N54K, K55F, R56L, W59G, I77L, T78S, A80V, A82P, D87E

Columns and labels:
[1] = target: T1, recombinant cynomolgus CD3e (22-49)-Fc2(K105-K330) (cynomolgus monkey); assay: ELISA, 1 nM antigen coated, IgG titrated, anti-human F(ab')2-AP detection
T1 construct: also called cyCD3e(22-49)_Fc2(K105-K330); cyCD3 epsilon 22-49/Fc

[2] = target: T2, cynomolgus CD3 expressed on cynomolgus lymphocytes/PBMCs (cynomolgus monkey, UniProt Q95LI5 22-198); assay: flow cytometry on cynomolgus PBMCs (lymphocyte gate), detection with anti-human F(ab')2-PE
T2 construct: also called cynomolgus CD3 epsilon
T2 sequence (Q95LI5 22-198): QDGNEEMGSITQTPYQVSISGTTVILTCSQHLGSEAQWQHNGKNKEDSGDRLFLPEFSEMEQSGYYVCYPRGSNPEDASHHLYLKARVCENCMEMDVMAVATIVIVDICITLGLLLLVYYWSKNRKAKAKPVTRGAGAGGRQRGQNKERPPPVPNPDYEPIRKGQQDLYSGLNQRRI

[3] = target: Human CD3e (22-118) Flag_chLys_avi (human); assay: SPR (Biacore T200), IgG captured on MabSelect SuRe, hCD3e analyte 4.1-999 nM, 1:1 fit
Human CD3e (22-118) Flag_chLys_avi (human), sequence (chain, as listed by the source limits assumed): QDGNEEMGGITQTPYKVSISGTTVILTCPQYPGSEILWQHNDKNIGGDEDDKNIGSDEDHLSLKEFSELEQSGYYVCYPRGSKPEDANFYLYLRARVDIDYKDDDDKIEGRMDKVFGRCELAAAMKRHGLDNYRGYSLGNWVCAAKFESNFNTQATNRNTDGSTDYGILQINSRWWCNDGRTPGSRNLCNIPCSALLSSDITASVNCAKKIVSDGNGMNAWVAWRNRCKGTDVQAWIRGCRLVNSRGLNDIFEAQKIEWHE

[4] = target: T3, recombinant human CD3e (22-49)-Fc2 (K105-K330) (human); assay: ELISA, 5 nM antigen coated, IgG titrated, anti-human F(ab')2-AP detection
T3 construct: also called hCD3e(22-49)_Fc2(K105-K330); hCD3 epsilon 22-49/Fc

[5] = target: T4, human CD3 expressed on cells (Jurkat cells; human lymphocytes/PBMCs) (human, UniProt P07766 23-207); assay: flow cytometry on CD3 positive Jurkat cells, IgG titrated, anti-human F(ab')2-PE detection
T4 construct: on the cells it stands in the CD3/TCR complex; also called human CD3 epsilon; CD3 positive Jurkat cells
T4 sequence (P07766 23-207): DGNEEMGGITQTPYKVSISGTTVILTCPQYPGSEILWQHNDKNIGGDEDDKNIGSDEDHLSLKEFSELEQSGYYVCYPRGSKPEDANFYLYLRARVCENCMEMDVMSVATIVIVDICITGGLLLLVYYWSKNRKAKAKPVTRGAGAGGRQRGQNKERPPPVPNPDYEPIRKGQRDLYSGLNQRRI

[6] = target: Human CD3e (22-118) Flag_chLys_avi (human); assay: SPR (Biacore T200), IgG captured on MabSelect SuRe, hCD3e analyte, 1:1 fit; comment: only conc. 37-333 nM used for evaluation
[7] = target: Human CD3e (22-118) Flag_chLys_avi (human); assay: SPR (Biacore T200), IgG captured on MabSelect SuRe, hCD3e analyte, 1:1 fit; comment: weak binding signals, only 333 nM & 999 nM evaluated
[8] = target: Human CD3e (22-118) Flag_chLys_avi (human); assay: SPR (Biacore T200), IgG captured on MabSelect SuRe, hCD3e analyte 4.1-999 nM, 1:1 fit; comment: slightly heterogeneous binding
[9] = target: Human CD3e (22-118) Flag_chLys_avi (human); assay: SPR (Biacore T200), IgG captured on MabSelect SuRe, hCD3e analyte 4.1-999 nM, 1:1 fit; comment: heterogeneous binding

Binder | EC50 [1] [nM] | EC50 (read off the curve) [2] [nM] | EC50 [4] [nM] | EC50 [5] [nM] | Kd [8] [nM] | koff [8] [s⁻¹] | kon [8] [M⁻¹ s⁻¹] | further results
B1 | 0.15 | ~3 | 0.39 | 1.4 |  |  |  | Kd [3]: 1.7 nM; koff [3]: 0.000835 s⁻¹; kon [3]: 487000 M⁻¹ s⁻¹
B2 | 0.21 |  | 0.34 | 1 |  |  |  | Kd [6]: 48 nM; koff [6]: 0.00387 s⁻¹; kon [6]: 80000 M⁻¹ s⁻¹
B3 | 1.53 |  | 1.21 | 9.4 |  |  |  | Kd [7]: 600 nM; koff [7]: 0.00847 s⁻¹; kon [7]: 14200 M⁻¹ s⁻¹
B4 | 0.21 | ~6 | 0.38 | 1.4 | 54 | 0.00385 | 71800 | 
B5 | 1.26 | ~10 | 0.91 | 10.7 |  |  |  | Kd [9]: 130 nM; koff [9]: 0.00467 s⁻¹; kon [9]: 35200 M⁻¹ s⁻¹
B6 | 0.2 |  | 0.31 | 1.8 | 51 | 0.00386 | 76200 | 
B7 | 1.43 | ~20 | 0.6 | 6.6 | 78 | 0.00658 | 84000 | 
B8 | 0.8 | ~20 | 1.1 | 6.3 |  |  |  | Kd [9]: 74 nM; koff [9]: 0.00479 s⁻¹; kon [9]: 65000 M⁻¹ s⁻¹

Source: patent US20200377594A1 (MorphoSys, published 2020)
